Data taken from publication PMC6774866 (Molecular immunology, 2019).
Where no end group is shown, it is not given here.

Columns and labels:
[1] = target: UBC6e(1-197), randomly biotinylated with biotin-NHS (Mus musculus, UniProt Q9JJZ4, biotin on exposed Lys residues (random, biotin-N-hydroxysuccinimide ester)); assay: BLI
[2] = target: UBC6e(1-197)-LPETGGG-biotin (Mus musculus, UniProt Q9JJZ4, biotin at the C-terminus (LPETGGG-biotin, by sortagging)); assay: BLI
[3] = target: T1, Biotinylated 14-residue UBC6e peptide (Mus musculus (identical in human), UniProt Q9JJZ4, also: biotin, position not given here); assay: BLI
T1 chain: QADQEAKELARQIS-NH2

[4] = target: T2, eGFP-UBC6e(168-186) (Mus musculus (printed stretch matches …, UniProt Q9JJZ4, chimera, also: joined to eGFP)); assay: pull-down
T2 chain: GSSQADQEAKELARQISFK-NH2

[5] = target: T3, Arl3 sortagged with the UBC6e(168-186) tag (Mus musculus (UBC6e tag), UniProt Q9JJZ4, chimera, also: sortagged to Arl3); assay: pull-down
T3 chain: GSSQADQEAKELARQISFK-NH2

Sequence of UBC6e(1-197), randomly biotinylated with biotin-NHS (Q9JJZ4 1-197): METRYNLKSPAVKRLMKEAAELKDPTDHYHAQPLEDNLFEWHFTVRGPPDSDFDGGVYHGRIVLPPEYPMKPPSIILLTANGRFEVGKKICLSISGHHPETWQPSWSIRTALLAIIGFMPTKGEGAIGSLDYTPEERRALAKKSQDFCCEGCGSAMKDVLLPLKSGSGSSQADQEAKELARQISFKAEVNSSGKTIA
Sequence of UBC6e(1-197)-LPETGGG-biotin (Q9JJZ4 1-197): as above

B1: VHH05 (VHH)
VHH: QVQLQESGGGLVQPGGSLRLSCAASGFVFENSAMAWYRQAPGKERELIAVIGTTFIKLAESVKGRFTISRDNAKSTVYLQMNNLKPEDTAVYYCSKSGAYWGQGTQVTVSS
[1]
  Kd: 14 nM
[2]
  Kd: 16 nM
[3]
  Kd: ~0.15 nM
[4]
  binding result: binds
[5]
  binding result: binds
